{"source": "paper PMC8041772", "about": "“Activation mechanism of a small prototypic Rec-GGDEF diguanylate cyclase” (Nature Communications, 2021)", "key": {"DgcR": {"target": "T1, DgcR (Leptospira biflexa, UniProt B0SUI1)", "T1 construct": "gene LEPBI_p0053; full-length (298 residues), dimer", "T1 sequence (B0SUI1 1-298)": "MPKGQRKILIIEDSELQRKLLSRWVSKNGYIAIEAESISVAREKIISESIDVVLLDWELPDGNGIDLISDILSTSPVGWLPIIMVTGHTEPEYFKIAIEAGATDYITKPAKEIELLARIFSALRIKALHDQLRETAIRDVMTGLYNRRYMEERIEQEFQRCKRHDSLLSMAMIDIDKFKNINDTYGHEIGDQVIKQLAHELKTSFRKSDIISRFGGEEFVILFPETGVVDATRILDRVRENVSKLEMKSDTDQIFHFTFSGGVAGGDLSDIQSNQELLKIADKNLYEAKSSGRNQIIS", "assay": "crystal structure at […] Å (DgcR_inh); product-inhibition Ki from progress curves (oIEC), about […] for BeF3-activated and about […] for native enzyme", "assay_type": "biochemical"}, "[1]": {"target": "DgcR (LEPBI_RS18680, diguanylate cyclase controlled by Rec) from Leptospira biflexa, wild type, native (Leptospira biflexa)", "assay": "SEC-MALS; in-line multi-angle light scattering and refractive index; 100 µL loaded at 0.5 to 10 mg/mL with various ligands; 20 mM Tris pH 8.0, 500 mM NaCl (or 20 mM NaCl), 5 mM MgCl2, 1 mM DTT; substrate analogue, product or lower salt did not change the quaternary state"}, "[2]": {"target": "DgcR wild type, BeF3- modified (pseudo-phosphorylated, activated) (Leptospira biflexa)", "assay": "SEC-MALS; in-line multi-angle light scattering and refractive index; 100 µL loaded at 0.5 to 10 mg/mL with various ligands; 20 mM Tris pH 8.0, 500 mM NaCl (or 20 mM NaCl), 5 mM MgCl2, 1 mM DTT; substrate analogue, product or lower salt did not change the quaternary state"}}, "data": [{"molecule": "Nc1nc2c(ncn2[C@@H]2O[C@@H]3CO[P@](=O)(O)O[C@H]4[C@@H](O)[C@H](n5cnc6c(=O)[nH]c(N)nc65)O[C@@H]4CO[P@](=O)(O)O[C@H]3[C@H]2O)c(=O)[nH]1", "note": "[c-di-GMP]", "values": [{"measurement": "Ki", "setting": "DgcR", "result": "~150", "unit": "nM"}]}, {"molecule": "DgcR (LEPBI_RS18680, diguanylate cyclase controlled by Rec) from Leptospira biflexa, wild type, native (enzyme)", "values": [{"measurement": "stoichiometry N", "setting": "[1]", "result": 2}]}, {"molecule": "DgcR wild type, BeF3- modified (pseudo-phosphorylated, activated) (enzyme)", "values": [{"measurement": "stoichiometry N", "setting": "[2]", "result": 2}]}]}
